B1: Zinc finger protein-like 1 (Mus musculus), Q9DB43 (parent)
chain: MGLCKCPKRKVTNLFCFEHRVNVCEHCLVANHAKCIVQSYLQWLQDSDYNPNCRLCNTPLASRETTRLVCYDLFHWACINERAAQLPRNTAPAGYQCPSCNGPIFPPANLAGPVASALREKLATVNWARAGLGLPLIDEVISPEPEPLNSSDFSDWSSFNATTTSVQEERASTPSAPAFYSQAPRPPPSPSRPEQHTVIHMGSTEALAHAPRKVYDTRDDDRTAGIHGDCDDDKYRRRPALGWLAQLLRSRAGSRKRPLTLLQRAGLLLLLGLLGFLALLALMSRLGRAAADSDPNLDPLMNPHIRVGPS
partner: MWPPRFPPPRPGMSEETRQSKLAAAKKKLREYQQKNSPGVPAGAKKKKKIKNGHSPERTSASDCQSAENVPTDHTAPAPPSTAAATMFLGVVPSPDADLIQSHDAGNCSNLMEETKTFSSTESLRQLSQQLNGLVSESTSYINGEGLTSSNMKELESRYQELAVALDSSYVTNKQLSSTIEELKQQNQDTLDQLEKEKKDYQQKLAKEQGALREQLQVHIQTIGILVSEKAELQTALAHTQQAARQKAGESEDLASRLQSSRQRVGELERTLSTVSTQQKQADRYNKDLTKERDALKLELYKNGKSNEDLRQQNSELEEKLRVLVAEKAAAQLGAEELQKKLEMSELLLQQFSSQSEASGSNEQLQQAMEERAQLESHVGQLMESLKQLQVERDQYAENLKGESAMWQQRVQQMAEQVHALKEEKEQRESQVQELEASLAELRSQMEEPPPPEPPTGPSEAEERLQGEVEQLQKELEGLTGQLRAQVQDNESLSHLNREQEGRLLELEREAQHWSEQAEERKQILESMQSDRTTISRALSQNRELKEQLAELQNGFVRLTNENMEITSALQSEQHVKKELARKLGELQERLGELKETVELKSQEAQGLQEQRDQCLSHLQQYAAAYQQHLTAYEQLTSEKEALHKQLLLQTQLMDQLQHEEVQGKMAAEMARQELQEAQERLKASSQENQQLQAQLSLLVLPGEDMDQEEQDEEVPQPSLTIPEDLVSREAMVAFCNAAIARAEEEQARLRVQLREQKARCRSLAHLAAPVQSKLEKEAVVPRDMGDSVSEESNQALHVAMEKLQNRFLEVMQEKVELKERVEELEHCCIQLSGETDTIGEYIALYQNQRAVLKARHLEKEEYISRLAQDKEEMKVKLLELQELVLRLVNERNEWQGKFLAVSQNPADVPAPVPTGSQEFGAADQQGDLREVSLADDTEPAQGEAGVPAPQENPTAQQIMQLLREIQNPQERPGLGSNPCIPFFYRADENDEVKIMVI

Variants of: B1
Details: with goga2_rat Golga2, Q62839

Variant	effect of a mutation on the interaction
MGLCKCPKRKVTNLFCFEHRVNVCEHALVANHAKCIVQSYLQWLQDSDYNPNCRLCNTPLASRETTRLVCYDLFHWACINERAAQLPRNTAPAGYQCPSCNGPIFPPANLAGPVASALREKLATVNWARAGLGLPLIDEVISPEPEPLNSSDFSDWSSFNATTTSVQEERASTPSAPAFYSQAPRPPPSPSRPEQHTVIHMGSTEALAHAPRKVYDTRDDDRTAGIHGDCDDDKYRRRPALGWLAQLLRSRAGSRKRPLTLLQRAGLLLLLGLLGFLALLALMSRLGRAAADSDPNLDPLMNPHIRVGPS [C27A]	decreasing interaction

Variants of: B1
Details: with goga2_rat Golga2, Q62839
Remark: another data set of the same source

Variant	effect of a mutation on the interaction
MGLCKCPKRKVTNLFCFEHRVNVCEHALVANHAKCIVQSYLQWLQDSDYNPNCRLCNTPLASRETTRLVCYDLFHWACINERAAQLPRNTAPAGYQCPSCNGPIFPPANLAGPVASALREKLATVNWARAGLGLPLIDEVISPEPEPLNSSDFSDWSSFNATTTSVQEERASTPSAPAFYSQAPRPPPSPSRPEQHTVIHMGSTEALAHAPRKVYDTRDDDRTAGIHGDCDDDKYRRRPALGWLAQLLRSRAGSRKRPLTLLQRAGLLLLLGLLGFLALLALMSRLGRAAADSDPNLDPLMNPHIRVGPS [C27A]	disrupting interaction

Variants of: B1
Details: with goga2_rat Golga2, Q62839
Remark: another data set of the same source

Variant	effect of a mutation on the interaction
MGLCKCPKRKVTNLFCFEHRVNVCEHCLVANHAKCIVQSYLQWLQDSDYNPNARLCNTPLASRETTRLVCYDLFHWACINERAAQLPRNTAPAGYQCPSCNGPIFPPANLAGPVASALREKLATVNWARAGLGLPLIDEVISPEPEPLNSSDFSDWSSFNATTTSVQEERASTPSAPAFYSQAPRPPPSPSRPEQHTVIHMGSTEALAHAPRKVYDTRDDDRTAGIHGDCDDDKYRRRPALGWLAQLLRSRAGSRKRPLTLLQRAGLLLLLGLLGFLALLALMSRLGRAAADSDPNLDPLMNPHIRVGPS [C53A]	decreasing interaction

Variants of: B1
Details: with goga2_rat Golga2, Q62839
Remark: another data set of the same source

Variant	effect of a mutation on the interaction
MGLCKAPKRKVTNLFCFEHRVNVCEHCLVANHAKCIVQSYLQWLQDSDYNPNCRLCNTPLASRETTRLVCYDLFHWACINERAAQLPRNTAPAGYQCPSCNGPIFPPANLAGPVASALREKLATVNWARAGLGLPLIDEVISPEPEPLNSSDFSDWSSFNATTTSVQEERASTPSAPAFYSQAPRPPPSPSRPEQHTVIHMGSTEALAHAPRKVYDTRDDDRTAGIHGDCDDDKYRRRPALGWLAQLLRSRAGSRKRPLTLLQRAGLLLLLGLLGFLALLALMSRLGRAAADSDPNLDPLMNPHIRVGPS [C6A]	disrupting interaction

Reference: IntAct's records for PubMed 18323775
